Data taken from US20100183617A1 (UNIVERSITY OF VIRGINIA PATENT FOUNDATION, published 2010).

B4: in vitro translated 35S-methionine labeled mature mouse SLLP1 (128 residues) with N-terminal HA tag (ligand, not shown: small tags and cut ends)
chain: KVFSRCELAKEMHDFGLDGYRGYNLADWVCLAYYTSGFNTNAVDHEADGSTNNGIFQISSRRWCRTLASNGPNLCRIYCTDLLNNDLKDSIVCAMKIVQEPLGLGYWEAWRHHCQGRDLSDWVDGCDF
modifications: 35S-methionine labeled
notes: ˜16 kD; also called SLLP1 (S); S-SLLP1

Key:
[1] = target: B4; assay: co-IP of in vitro translated 35S-labeled proteins, anti-Myc beads
Experimental: (§1) High affinity anti-c-Myc and anti-HA monoclonal antibodies coupled to agarose beads were employed to immunoprecipitate proteins (IP) and their radiolabeled putative interacting partners (Co-IP) using the Profound c-Myc/HA Tag IP/Co-IP system (Pierce, Ill.). For Co-IP reactions, the specific TNT products, ranging from 7-23 μl were gently mixed and kept at 4° C. for 1 h. Simultaneously the anti-c-Myc and anti-HA antibody beads were incubated with 5% milk in PBST (phosphate buffer saline with 0.05% Tween 20) for 1 h at 4° C. in Handy spin columns (Pierce, Ill.) with gentle end-over-end mixing to prevent loss of beads during the subsequent steps. Following blocking, the antibody beads were incubated with IP or Co-IP samples overnight at 4° C. in Handee spin columns with gentle end-over-end mixing. The beads were then precipitated and washed 3 times in 500 μl of PBST at 4000×g for 10 sec with 3 gentle mixes during each wash. The IP and co-IP products were then recovered from the beads in 23 μl of 2× non-reducing sample buffer, heated at 99° C. for 5 min, centrifuged, and mixed with 2 μl of β-mercaptoethanol, and 20 μl of this mixture was loaded per lane for SDS-PAGE analysis using Criterion gels (Bio-Rad, CA). After electrophoresis, the gels were fixed, air dried, exposed to phosphor screens, and imaged as described above for analysis of TNT products. […]

[2] = target: T1, purified recombinant mouse SAS1R (mature, 414 residues), His-tagged, expressed in E. coli (mouse, UniProt Q6HA09 24-435); assay: co-localization by immunofluorescence, capacitated sperm incubated with rSAS1R
T1 construct: Purified from the insoluble fraction in 8 M urea on a Ni column; The preparation also holds a ˜25 kD C-terminal fragment; ZEP is the earlier name of SAS1R; also called rSAS1R; rec SAS1R; not shown: twenty vector-encoded (pET-28b(+)) amino acids including a six histidine tag at the N-terminus; ten vector-encoded amino acids including a six histidine tag at the C-terminus
T1 sequence: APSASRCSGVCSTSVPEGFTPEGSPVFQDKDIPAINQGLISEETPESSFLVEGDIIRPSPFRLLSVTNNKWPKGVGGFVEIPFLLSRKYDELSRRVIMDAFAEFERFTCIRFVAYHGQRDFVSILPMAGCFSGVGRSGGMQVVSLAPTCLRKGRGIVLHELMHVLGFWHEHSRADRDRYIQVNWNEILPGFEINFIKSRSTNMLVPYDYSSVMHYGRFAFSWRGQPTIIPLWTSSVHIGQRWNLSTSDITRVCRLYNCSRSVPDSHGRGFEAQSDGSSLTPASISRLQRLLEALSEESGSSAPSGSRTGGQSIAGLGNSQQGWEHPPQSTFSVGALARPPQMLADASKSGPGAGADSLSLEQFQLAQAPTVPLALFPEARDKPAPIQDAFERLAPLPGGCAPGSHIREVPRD

[3] = target: T1, purified recombinant mouse SAS1R …; assay: far-western overlay
Experimental: Before protein overlay, the strips were incubated with blocking buffer for 1 h. […] After washing in PBST (×4), the strips were probed with goat anti-mouse HRP secondary antibody in blocking buffer for 1 h, washed in PBST (×4) followed by PBS (×1), and developed with TMB.

[4] = target: T2, in vitro translated 35S-methionine labeled full length SAS1R with N-terminal c-Myc tag (mouse, UniProt Q6HA09 24-435, 35S-methionine labeled); assay: co-IP of in vitro translated 35S-labeled proteins, anti-Myc beads
T2 construct: ˜50 kD; also called SAS1R full length (F); F-SAS1R full length
T2 sequence: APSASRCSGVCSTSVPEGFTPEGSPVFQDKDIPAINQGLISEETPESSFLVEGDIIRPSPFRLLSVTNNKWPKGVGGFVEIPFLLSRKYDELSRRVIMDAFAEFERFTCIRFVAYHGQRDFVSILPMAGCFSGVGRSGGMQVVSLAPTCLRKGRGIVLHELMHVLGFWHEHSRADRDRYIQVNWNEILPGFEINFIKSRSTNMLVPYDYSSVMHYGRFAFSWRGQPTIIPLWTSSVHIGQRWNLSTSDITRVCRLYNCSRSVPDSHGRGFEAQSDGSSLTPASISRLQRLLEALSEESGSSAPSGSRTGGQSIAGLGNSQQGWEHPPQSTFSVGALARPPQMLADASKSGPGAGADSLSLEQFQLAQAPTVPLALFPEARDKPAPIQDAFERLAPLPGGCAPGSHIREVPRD
Experimental: as §1

[5] = target: T3, SV40 large T-antigen (control construct of the two-hybrid system; HA-tagged when translated in vitro) (SV40, UniProt P03070 86-708); assay: yeast two-hybrid, high stringency plate
T3 construct: Control used both in the Y2H assay and in the co-IP (HA tag); also called T-antigen (T)
T3 sequence (P03070 86-708 limits assumed): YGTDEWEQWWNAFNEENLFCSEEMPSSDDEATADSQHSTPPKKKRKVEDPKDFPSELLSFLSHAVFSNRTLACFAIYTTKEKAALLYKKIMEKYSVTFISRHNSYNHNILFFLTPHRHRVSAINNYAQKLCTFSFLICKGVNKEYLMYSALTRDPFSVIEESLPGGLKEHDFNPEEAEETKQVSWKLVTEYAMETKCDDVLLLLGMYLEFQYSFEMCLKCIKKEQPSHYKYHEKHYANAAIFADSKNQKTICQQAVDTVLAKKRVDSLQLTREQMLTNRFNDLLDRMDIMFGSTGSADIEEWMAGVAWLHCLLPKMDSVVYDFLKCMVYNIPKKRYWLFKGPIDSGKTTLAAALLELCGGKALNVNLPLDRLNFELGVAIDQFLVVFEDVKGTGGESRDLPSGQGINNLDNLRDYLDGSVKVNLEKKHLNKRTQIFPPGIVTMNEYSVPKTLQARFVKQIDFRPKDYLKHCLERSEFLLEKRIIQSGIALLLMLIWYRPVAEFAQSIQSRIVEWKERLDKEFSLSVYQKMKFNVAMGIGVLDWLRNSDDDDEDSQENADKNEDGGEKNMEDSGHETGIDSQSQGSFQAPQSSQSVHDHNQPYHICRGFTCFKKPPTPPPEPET

B1: in vitro translated 35S-methionine labeled SAS1R N-terminus (121 residues) with N-terminal c-Myc tag (receptor, not shown: small tags and cut ends)
chain: MGAPSASRCSGVCSTSVPEGFTPEGSPVFQDKDIPAINQGLISEETPESSFLVEGDIIRPSPFRLLSVTNNKWPKGVGGFVEIPFLLSRKYDELSRRVIMDAFAEFERFTCIRFVAYHGQR
modifications: 35S-methionine labeled
notes: ˜21 kD; also called N-terminus (N); N-SAS1R N-terminus
- binding result [1]: binds

B2: native mouse SLLP1 of sperm (acrosomal, ˜15 kDa form) (ligand)
chain: KVFSRCELAKEMHDFGLDGYRGYNLADWVCLAYYTSGFNTNAVDHEADGSTNNGIFQISSRRWCRTLASNGPNLCRIYCTDLLNNDLKDSIVCAMKIVQEPLGLGYWEAWRHHCQGRDLSDWVDGCDF
notes: Only a ˜15 kDa form is found in sperm extracts; The predicted processed form is residues 94-221 (cleavage between A93 and K94 is only predicted); On sperm or in sperm extracts; also called native SLLP1; native mSLLP1
- binding result [2]: binds

B3: purified soluble recombinant mouse SLLP1 (mature form, residues 94-221), His-tagged, expressed in E. coli (ligand)
chain: KVFSRCELAKEMHDFGLDGYRGYNLADWVCLAYYTSGFNTNAVDHEADGSTNNGIFQISSRRWCRTLASNGPNLCRIYCTDLLNNDLKDSIVCAMKIVQEPLGLGYWEAWRHHCQGRDLSDWVDGCDF
notes: also called rSLLP1; rec SLLP1; not shown: two vector-encoded residues at the N-terminus and eight at the C-terminus including the six-histidine tag (pET28b+)
- binding result [3]: binds

Binder: B4
- binding result [4]: binds

B5: human Lamin C (negative control construct of the two-hybrid system) (other)
chain: SEEVVSREVSGIKAAYEAELGDARKTLDSVAKERARLQLELSKVREEFKELKARNTKKEGDLIAAQARLKDLEALLNSKEAALSTALSEKRTLEGELHDLRGQVAKLEAALGEAKKQLQDEMLRRVDAENRLQTMKEELDFQKNIYSEELRETKRRHETRLVEID
- binding result [5]: no binding
